Assay results: US5844093, “Anti-EGFR single-chain Fvs and anti-EGFR antibodies” (Merck Patent Gesellschaft mit Beschrankter Haftung, dated 1998)

Key:
ovalbumin = ovalbumin (Gallus gallus (Chicken), UniProt P01012); assay: ELISA, bacterial supernatants
Description: (§1) The scFvs were tested by ELISA for binding to plastic and to a panel of unrelated proteins (ovalbumin, hen egg lysozyme, cytochrome c, glyceraldehyde 3-phosphate dehydrogenase, CBA albumin, and BSA).
(§2) Supernatants containing scFvs were diluted in PBSM and added to the plates. Bound scFvs were detected using 9E10 antibody as described above. Supernatants were also tested for binding to a panel of unrelated proteins and plastic. ELISA plates were coated overnight at 100 µg/ml with ovalbumin, hen egg lysozyme, cytochrome c, glyceraldehyde 3-phosphate dehydrogenase, murine albumin (CBA strain), and BSA. Undiluted supernatants containing 2% milk powder were added in duplicate to the coated plates and bound scFvs detected as described above.

[1] = molecular target: murine albumin (CBA strain) (murine, UniProt P07724); assay: ELISA, bacterial supernatants
Description: as §1, §2

hen egg lysozyme = hen egg lysozyme (hen, UniProt P00698); assay: ELISA, bacterial supernatants
Description: as §1, §2

BSA = BSA (Bos taurus (Bovine), UniProt P02769); assay: ELISA, bacterial supernatants
Description: as §1, §2

purified EGFR = purified EGFR (human, UniProt P00533); assay: ELISA, purified EGFR, bacterial supernatants
Description: Binding of scFvs to EGFR. The concentrations of scFvs in bacterial supernatants were estimated and the scFvs tested by ELISA for binding to purified EGFR.
Antigen-binding ELISAs were carried out with EGFR-coated plates (2.5 µg/ml). Supernatants containing scFvs were diluted in PBSM and added to the plates. Bound scFvs were detected using 9E10 antibody as described above. Supernatants were also tested for binding to a panel of unrelated proteins and plastic. ELISA plates were coated overnight at 100 µg/ml with ovalbumin, hen egg lysozyme, cytochrome c, glyceraldehyde 3-phosphate dehydrogenase, murine albumin (CBA strain), and BSA. Undiluted supernatants containing 2% milk powder were added in duplicate to the coated plates and bound scFvs detected as described above.

[2] = molecular target: EGFR on EGFR-bearing tumor cells (human, UniProt P00533); assay: cell ELISA on A431 and MDA MB 468 cells, bacterial supernatants
Description: The scFvs were tested by ELISA for binding to three tumor cell lines. […] Cell line SK-MEL-23 is a ganglioside-bearing melanoma cell line and was included as a negative control.
Cells were grown to confluency in poly-D-lysine-treated 96 well tissue culture trays (Nunc). Cells were washed with DMEM and blocked at 37° C. for 2 h with PBS containing 2.5% BSA. After aspiration, supernatants were added to each well together with an equal volume of 2xYT media containing 4% milk powder and incubated at 40C for 1 h. Bound scFvs were detected as described above.

Row | Binder | binding result (ovalbumin) | binding result [1] | binding result (hen egg lysozyme) | binding result (BSA) | binding result (purified EGFR) | binding result [2]
1 | scFv No. S4 2D (scFv, V domains shown) VH: EVKLQQSGPELVKPGASVKMSCKASGYAFISFVMHWVKQKPGQGLEWIGFINPYNDGTKYNEKFKDKATLTSDKSSSTAYMELSSLTSEDSAVYYCASGDYDRAMDYWGQGTTVTVSS VL: DIELTQSPTTMAASPGEKITITCSASSSISSNYLHWYQQKPGFSPKLLIYRTSNLASGVPARFSGSGSGTSYSLTIGTMEAEDVATYYCQQGSSIPRTFGGGTKLEIKR | no binding | no binding | no binding | no binding | – | –
2 | scFv No. L2 12B (scFv, V domains shown) VH: QVQLQESGPELVKPGALVKISCKASGYTFTSYWMHWVKQRPGQGLEWIGEIDPSDSYTNYNQKFKGKATLTVDKSSNTAYMQLSSLTSEDSAVYYCARSDYGSSHFDYWGQGTTVTVSS VL: not shown | no binding | no binding | no binding | no binding | binds | binds
3 | scFv No. L3 11D (scFv, V domains shown) VH: EVQLQQSGAELVKPGASVKLSCKASGYTFTSYWMHWVKQRPGQGLEWIGEIDPSDSYTNYNQKFKGKATLTVDKSSSTAYMQLSSLTSEDSAVYYCARSDYGSSHFDYWGQGTTVTVSS VL: not shown | no binding | no binding | no binding | no binding | – | –
4 | scFv No. L2 11C (scFv, V domains shown) VH: QVQLQESGPELVRPGASVKMSCKASGYTFTTYWIHWMKQRPGQGLQWIGMIDPSNSETRLNQNFRDKATLSVDKSSNKAYMQLSSLTSEDSAIYYCARWDYGSGHFDYWGQGTTVTVSS VL: DIELTQSPASLAASVGETVTITCRASENIYYSLAWYQQKQGKSPQLLIYSASALEDGVPSRFSGSGSGTQYSLKINNMQPEDTATYFCKQTYDVPWTFGGGTKLEIKR | no binding | no binding | no binding | no binding | – | –
